Results published in patent publication US20210340548A1.

How the values were obtained:
Experiment in all cases: cell-based or functional assay
[1] = biological target: Cry2 PHR (L348F)-p65 AD (Arabidopsis thaliana; human) (UniProt Q96524)
[2] = biological target: Cry2 PHR (L348F)-p65 AD-NLSx2
[3] = biological target: Cry2 PHR-p65 AD (Arabidopsis thaliana; human) (UniProt Q96524)
[4] = biological target: Cry2 PHR-p65 AD-NLSx2 (Arabidopsis thaliana; human)
[5] = biological target: NLSx2-p65 AD-Cry2 PHR (L348F) (human; Arabidopsis thaliana)
[6] = biological target: NLSx2-p65 AD-Cry2 PHR (human; Arabidopsis thaliana)
[7] = biological target: p65 AD-Cry2 535 (L348F) (human; Arabidopsis thaliana) (UniProt Q04206)
[8] = biological target: p65 AD-Cry2 535 (human; Arabidopsis thaliana) (UniProt Q04206)
[9] = biological target: p65 AD-Cry2 PHR (L348F) (human; Arabidopsis thaliana) (UniProt Q04206)
[10] = biological target: p65 AD-Cry2 PHR (human; Arabidopsis thaliana) (UniProt Q04206)

| Substance | Average of the Light/Dark ratio [1] | Light/Dark [1] | Ub-ELuc luciferase, Dark [1] [relative] | Ub-ELuc luciferase, Light [1] [relative] | Average of the Light/Dark ratio [2] | Light/Dark [2] | Ub-ELuc luciferase, Dark [2] [relative] | Ub-ELuc luciferase, Light [2] [relative] | Average of the Light/Dark ratio [3] | Light/Dark [3] | Ub-ELuc luciferase, Dark [3] [relative] | Ub-ELuc luciferase, Light [3] [relative] | Average of the Light/Dark ratio [4] | Light/Dark [4] | Ub-ELuc luciferase, Dark [4] [relative] | Ub-ELuc luciferase, Light [4] [relative] | Average of the Light/Dark ratio [5] | Light/Dark [5] | Ub-ELuc luciferase, Dark [5] [relative] | Ub-ELuc luciferase, Light [5] [relative] | also measured |
| --- | --- | --- | --- | --- | --- | --- | --- | --- | --- | --- | --- | --- | --- | --- | --- | --- | --- | --- | --- | --- | --- |
| TetR (I194T, 1-206)-SPKKK-CIB1 full | 1.6 | 1.6 | 2.7 | 4.3 | 1 | 1.4 | 5.1 | 6.8 | 1.5 | 1.7 | 2.4 | 4.1 | 0.9 | 0.8 | 20.1 | 16.6 | 1.7 | 1.8 | 19.3 | 34.3 | Average of the Light/Dark ratio [6]: 1.9; Light/Dark [6]: 2.4; Ub-ELuc luciferase, Dark [6]: 21.9 relative; Ub-ELuc luciferase, Light [6]: 50.9 relative; Average of the Light/Dark ratio [7]: 2; Light/Dark [7]: 2.3; Ub-ELuc luciferase, Dark [7]: 4.8 relative; Ub-ELuc luciferase, Light [7]: 10.5 relative; Average of the Light/Dark ratio [8]: 2.1; Light/Dark [8]: 2.1; Ub-ELuc luciferase, Dark [8]: 4.3 relative; Ub-ELuc luciferase, Light [8]: 8.7 relative; Average of the Light/Dark ratio [9]: 1.7; Light/Dark [9]: 2.2; Ub-ELuc luciferase, Dark [9]: 8.3 relative; Ub-ELuc luciferase, Light [9]: 17.2 relative; Average of the Light/Dark ratio [10]: 1.6; Light/Dark [10]: 1.6; Ub-ELuc luciferase, Dark [10]: 13.8 relative; Ub-ELuc luciferase, Light [10]: 20.7 relative |
| TetR (I194T, 1-206)-SPKKK-CIB1 full no NLS | 1.2 | 1.5 | 4.8 | 7.2 | 0.9 | 1.2 | 11.3 | 12.4 | 1.4 | 2 | 3 | 5.4 | 0.9 | 0.9 | 30.1 | 25.2 | 1.4 | 1.9 | 50.2 | 86.8 | Average of the Light/Dark ratio [6]: 1.6; Light/Dark [6]: 2.2; Ub-ELuc luciferase, Dark [6]: 56 relative; Ub-ELuc luciferase, Light [6]: 109 relative; Average of the Light/Dark ratio [7]: 2; Light/Dark [7]: 2.7; Ub-ELuc luciferase, Dark [7]: 9.3 relative; Ub-ELuc luciferase, Light [7]: 23.9 relative; Average of the Light/Dark ratio [8]: 2; Light/Dark [8]: 3.3; Ub-ELuc luciferase, Dark [8]: 10.4 relative; Ub-ELuc luciferase, Light [8]: 31.8 relative; Average of the Light/Dark ratio [9]: 1.4; Light/Dark [9]: 1.6; Ub-ELuc luciferase, Dark [9]: 33 relative; Ub-ELuc luciferase, Light [9]: 47.9 relative; Average of the Light/Dark ratio [10]: 1.5; Light/Dark [10]: 2; Ub-ELuc luciferase, Dark [10]: 36.2 relative; Ub-ELuc luciferase, Light [10]: 65.2 relative |
